# Experimental data: patent US20180335433A1, “COMPOSITIONS TARGETING PKC-THETA AND USES AND METHODS OF TREATING PKC-THETA PATHOLOGIES, ADVERSE IMMUNE RESPONSES AND DISEASES” (La Jolla Institute for Allergy and Immunology, priority 2011, published 2018)
# Legend:
# Assay type in all cases: cell-based, mouse
# endogenous PKCθ = test: IS localization in OT-II CD4+ T cells conjugated with Ova-loaded APCs (confocal); details: OT-II TCR-Tg CD4+ T cells
# Method: (FIG. 6A) OT-II CD4^+ T cells were infected with retrovirus expressing Myc-tagged V3 domain, V3 mutated at P330/1/4/6A (V3-4PA), or PR motif-deleted V3 (V3-ΔPR). Infected cells (green) were harvested, stimulated, and fixed. Conjugates were stained with anti-Myc plus a secondary Alexa 555-coupled antibody (orange), and anti-PKCθ plus a secondary Alexa 647-coupled antibody (red). Cells were analyzed as in FIG. 1A. (FIG. 6B) Quantitative analysis of the results shown in (FIG. 6A) from 30-50 T-APC conjugates. ** p<0.05. (FIG. 6C) MCC-specific T hybridoma cells were cotransfected with indicated vector, together with RE/AP-Luc and β-Gal reporter plasmids. Cells were stimulated and analyzed as in FIG. 1C. (FIG. 6D) Naïve CD4^+ T cells from B6 mice stimulated with anti-CD3 plus anti-CD28 mAbs and differentiated in vitro under Th1-, Th2- or Th17-polarizing conditions were retrovirally transduced with empty pMIG vector, or with the indicated PKCθ V3 vectors. Cytokine-producing cells were analyzed by intracellular staining 8 h after restimulation. Right panels represent cumulative data showing percentage of cytokine-producing cells by intracellular staining. (FIG. 6E) MCC-specific T hybridoma cells were cotransfected with the indicated plasmids, together with NFAT luciferase reporter and a β-Gal reporter plasmid. Cells were incubated with fibroblasts that express I-E^K and B7-1 in the absence or presence of MCC peptide for 6 hrs. Normalized luciferase activity was determined in triplicates.
# Full-length human PKCθ and its derivatives were cloned as a GFP fusion protein in the pMX retroviral vector. Retroviral supernatants were used to infect preactivated CD4^+ T cells from PKCθ^−/− or WT OT-II mice. Transduced cells were rested for an additional three days. On the day of experiment, APC were prepared from WT B6 splenocytes that were depleted of CD4^+ T cells using anti-CD4 (L3T4) mAb-coated beads. T-depleted APC were stained with 20 μM of cell tracker blue (CMAC) and then pulsed with 5 μM Ova peptide, respectively, for 30 min at 37° C. T cell-APC conjugation was carried out at 37° C. for 20 min before fixation with 4% paraformaldehyde and permeabilization with PBS supplemented with 1% BSA and 0.1% Triton X-100. […] Immunofluorescene images were captured using a Marianas digital fluorescence-microscopy system (Intelligent Imaging Innovations) as described (Becart, S. et al. Immunity 29, 704-719 (2008)).
# Given the critical role of the PKCθ V3 domain in the enzyme's CD28 association, IS localization, and activation of downstream targets, ectopic expression of the isolated V3 domain was analyzed for interference with the localization and function of PKCθ in stimulated T cells. […]
# [1] = tested on: B6 CD4+ T cells, Th17 differentiation; test: In vitro Th17 differentiation of retrovirally transduced CD4+ T cells; details: ectopic expression, Th17 differentiation conditions
# Method: (FIG. 6A) OT-II CD4^+ T cells were infected with retrovirus expressing Myc-tagged V3 domain, V3 mutated at P330/1/4/6A (V3-4PA), or PR motif-deleted V3 (V3-ΔPR). Infected cells (green) were harvested, stimulated, and fixed. Conjugates were stained with anti-Myc plus a secondary Alexa 555-coupled antibody (orange), and anti-PKCθ plus a secondary Alexa 647-coupled antibody (red). Cells were analyzed as in FIG. 1A. (FIG. 6B) Quantitative analysis of the results shown in (FIG. 6A) from 30-50 T-APC conjugates. ** p<0.05. (FIG. 6C) MCC-specific T hybridoma cells were cotransfected with indicated vector, together with RE/AP-Luc and β-Gal reporter plasmids. Cells were stimulated and analyzed as in FIG. 1C. […] Cytokine-producing cells were analyzed by intracellular staining 8 h after restimulation. […] Normalized luciferase activity was determined in triplicates. […]
# Investigators have reported that the Th2 and Th17 immune responses are compromised in PKCθ^−/− mice, whereas the Th1 response remains relatively intact (Marsland, B. J. et al. J Exp Med 200, 181-189 (2004); Salek-Ardakani, S. et al. J Immunol 173, 6440-6447 (2004); Salek-Ardakani, S., et al. J Immunol 175, 7635-7641 (2005)). Therefore, ectopic expression of V3 was analyzed for inhibition of Th differentiation. […]
# [2] = tested on: Naïve CD4+ T cells from B6 mice, Th9 cells; test: In vitro Th9 differentiation of retrovirally transduced CD4+ T cells; details: Th9-polarizing conditions (IL-4+TGFβ), IL-9-producing cells
# Method: Naïve CD4^+ T cells from B6 mice stimulated with anti-CD3 plus anti-CD28 mAbs and differentiated in vitro under Th9-polarizing conditions (IL-4+TGFβ) were retrovirally transduced with empty pMIG vector, or with the indicated PKCθ V3 vectors. Transduced (GFP+) cells were sorted and IL-9-producing cells were analyzed by intracellular staining 8 h after restimulation. Cumulative data showing percentage of cytokine-producing. V3-4PA refers to mutation of 4 Pro residues in the Pro-rich motif to Ala and V3-DPR refers to deletion of the Pro-rich motif (ARPPCLPTP).
# Th9 cells have been reported to play an important role in promoting allergic diseases such as asthma (J. Asthma 48:115, 2011; Curr. Opin. Immunol. 24:1, 2012. These findings indicate that allergic disease such as asthma can be treated in accordance with the invention.
molecule,measurement,setting,value
"V3 domain: amino acid 282-379 of human PKCθ with N-terminal Myc tag, expressed from pMIG retroviral vector (protein, left off: small tags and cut ends, amino acid 282-379 of human PKCθ with N-terminal Myc tag, expressed from pMIG retroviral vector) GINQKLMAEALAMIESTQQARCLRDTEQIFREGPVEIGLPCSIKNEARPPCLPTPGKREPQGISWESPLDEVDKMCHLPEPELNKERPSLQIKLKIED",effect on IS localization of endogenous PKCθ,endogenous PKCθ,sequestered from the IS
same,subcellular localization of the transduced V3 protein,endogenous PKCθ,translocated to and selectively localized in the IS
same,inhibition of Th17 differentiation,[1],~75%
same,effect on differentiation of Th9 cells,[2],interferes
